Assay results reported in patent publication US6645728 (University of California, dated 2003).

T1: IKKα-T7 (murine, UniProt Q60680 1-745)
T1 construct: also called T7-IKKα; murine IKKα/CHUK
T1 sequence (looked up): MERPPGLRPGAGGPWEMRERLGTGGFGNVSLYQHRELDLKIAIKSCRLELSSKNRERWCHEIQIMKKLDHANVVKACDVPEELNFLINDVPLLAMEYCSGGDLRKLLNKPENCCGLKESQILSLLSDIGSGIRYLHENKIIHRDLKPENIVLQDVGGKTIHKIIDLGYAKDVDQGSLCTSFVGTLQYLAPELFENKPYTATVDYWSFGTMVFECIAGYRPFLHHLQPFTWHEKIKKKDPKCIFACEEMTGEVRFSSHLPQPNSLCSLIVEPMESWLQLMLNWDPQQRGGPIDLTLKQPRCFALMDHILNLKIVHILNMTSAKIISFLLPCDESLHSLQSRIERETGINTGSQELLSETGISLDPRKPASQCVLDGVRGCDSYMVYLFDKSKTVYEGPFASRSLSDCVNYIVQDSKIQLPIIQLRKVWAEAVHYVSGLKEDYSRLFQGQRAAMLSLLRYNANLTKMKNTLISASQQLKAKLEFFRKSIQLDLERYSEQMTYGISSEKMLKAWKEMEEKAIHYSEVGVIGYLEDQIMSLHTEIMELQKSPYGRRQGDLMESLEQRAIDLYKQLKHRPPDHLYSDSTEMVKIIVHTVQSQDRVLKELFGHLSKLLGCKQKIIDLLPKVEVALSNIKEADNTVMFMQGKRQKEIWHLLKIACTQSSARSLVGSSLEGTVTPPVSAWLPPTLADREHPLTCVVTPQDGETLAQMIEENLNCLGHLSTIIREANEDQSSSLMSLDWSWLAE


Legend:
IKKα-T7 = molecular target: T1, IKKα-T7; experiment: co-immunoprecipitation from 293 lysates, anti-T7 IP, anti-Myc blot
NIK-T7 = molecular target: T2, NIK-T7 (Homo sapiens (Human), UniProt Q99558 1-947); experiment: as above
T2 construct: Full-length NIK in pEV3S with C-terminal T7 tag; also called pEV-NIK-T7

binding result (IKKα-T7)	binding result (NIK-T7)	Binder
no binding	–	Myc-N1-624 (other, not shown: small tags and cut ends, C-terminal deletion mutant of NIK) MAVMEMACPGAPGSAVGQQKELPKPKEKTPPLGKKQSSVYKLEAVEKSPVFCGKWEILNDVITKGTAKEGSEAGPAAISIIAQAECENSQEFSPTFSERIFIAGSKQYSQSESLDQIPNNVAHATEGKMARVCWKGKRRSKARKKRKKKSSKSLAHAGVALAKPLPRTPEQESCTIPVQEDESPLGAPYVRNTPQFTKPLKEPGLGQLCFKQLGEGLRPALPRSELHKLISPLQCLNHVWKLHHPQDGGPLPLPTHPFPYSRLPHPFPFHPLQPWKPHPLESFLGKLACVDSQKPLPDPHLSKLACVDSPKPLPGPHLEPSCLSRGAHEKFSVEEYLVHALQGSVSSSQAHSLTSLAKTWAARGSRSREPSPKTEDNEGVLLTEKLKPVDYEYREEVHWATHQLRLGRGSFGEVHRMEDKQTGFQCAVKKVRLEVFRAEELMACAGLTSPRIVPLYGAVREGPWVNIFMELLEGGSLGQLVKEQGCLPEDRALYYLGQALEGLEYLHSRRILHGDVKADNVLLSSDGSHAALCDFGHAVCLQPDGLGKSLLTGDYIPGTETHMAPEVVLGRSCDAKVDVWSSCCMMLHMLNGCHPWTQFFRGPLCLKIASEPPPVREIPPSCAP
–	no binding	Myc-N570-947 (other, not shown: small tags and cut ends) GRSCDAKVDVWSSCCMMLHMLNGCHPWTQFFRGPLCLKIASEPPPVREIPPSCAPLTAQAIQEGLRKEPIHRVSAAELGGKVNRALQQVGGLKSPWRGEYKEPRHPPPNQANYHQTLHAQPRELSPRAPGPRPAEETTGRAPKLQPPLPPEPPEPNKSPPLTLSKEESGMWEPLPLSSLEPAPARNPSSPERKATVPEQELQQLEIELFLNSLSQPFSLEEQEQILSCLSIDSLSLSDDSEKNPSKASQSSRDTLSSGVHSWSSQAEARSSSWNMVLARGRPTDTPSYFNGVKVQIQSLNGEHLHIREFHRVKVGDIATGISSQIPAAAFSLVTKDGQPVRYDMEVPDSGIDLQCTLAPDGSFAWSWRVKHGQLENRP
no binding	–	Myc-N1-366 (other, not shown: small tags and cut ends, C-terminal deletion mutant of NIK) MAVMEMACPGAPGSAVGQQKELPKPKEKTPPLGKKQSSVYKLEAVEKSPVFCGKWEILNDVITKGTAKEGSEAGPAAISIIAQAECENSQEFSPTFSERIFIAGSKQYSQSESLDQIPNNVAHATEGKMARVCWKGKRRSKARKKRKKKSSKSLAHAGVALAKPLPRTPEQESCTIPVQEDESPLGAPYVRNTPQFTKPLKEPGLGQLCFKQLGEGLRPALPRSELHKLISPLQCLNHVWKLHHPQDGGPLPLPTHPFPYSRLPHPFPFHPLQPWKPHPLESFLGKLACVDSQKPLPDPHLSKLACVDSPKPLPGPHLEPSCLSRGAHEKFSVEEYLVHALQGSVSSSQAHSLTSLAKTWAARGSR
no binding	–	Myc-N1-578 (other, not shown: small tags and cut ends, C-terminal deletion mutant of NIK) MAVMEMACPGAPGSAVGQQKELPKPKEKTPPLGKKQSSVYKLEAVEKSPVFCGKWEILNDVITKGTAKEGSEAGPAAISIIAQAECENSQEFSPTFSERIFIAGSKQYSQSESLDQIPNNVAHATEGKMARVCWKGKRRSKARKKRKKKSSKSLAHAGVALAKPLPRTPEQESCTIPVQEDESPLGAPYVRNTPQFTKPLKEPGLGQLCFKQLGEGLRPALPRSELHKLISPLQCLNHVWKLHHPQDGGPLPLPTHPFPYSRLPHPFPFHPLQPWKPHPLESFLGKLACVDSQKPLPDPHLSKLACVDSPKPLPGPHLEPSCLSRGAHEKFSVEEYLVHALQGSVSSSQAHSLTSLAKTWAARGSRSREPSPKTEDNEGVLLTEKLKPVDYEYREEVHWATHQLRLGRGSFGEVHRMEDKQTGFQCAVKKVRLEVFRAEELMACAGLTSPRIVPLYGAVREGPWVNIFMELLEGGSLGQLVKEQGCLPEDRALYYLGQALEGLEYLHSRRILHGDVKADNVLLSSDGSHAALCDFGHAVCLQPDGLGKSLLTGDYIPGTETHMAPEVVLGRSCDAKVD
no binding	no binding	Myc-N1-220 (other, not shown: small tags and cut ends, Treated as one construct; also called Myc-N1-200; N1-200) MAVMEMACPGAPGSAVGQQKELPKPKEKTPPLGKKQSSVYKLEAVEKSPVFCGKWEILNDVITKGTAKEGSEAGPAAISIIAQAECENSQEFSPTFSERIFIAGSKQYSQSESLDQIPNNVAHATEGKMARVCWKGKRRSKARKKRKKKSSKSLAHAGVALAKPLPRTPEQESCTIPVQEDESPLGAPYVRNTPQFTKPLKEPGLGQLCFKQLGEGLRPA
